Source: US12371456B2, “Proteins for the treatment of epithelial barrier function disorders” (Genevive, Inc., priority 2017, dated 2025)

Key:
TNF-α = TNF-α production by monocytes in co-culture TEER assay (Luminex); type: cell-based, human; settings: pre-incubated 6 hours prior to HK E. coli; FIG. 2A
Protocol: (§1) Production of the pro-inflammatory cytokines TNF-α and IL-23 by monocytes was measured in the tissue culture supernatant from the basolateral chamber of the co-culture TEER assay performed in Example 2. Following TEER readings, the supernatants were centrifuged at 10,000 g for 5 minutes at 4° C. to remove cell debris. Luminex analysis was performed according to the manufacturer's instructions (Magpix instrument and xPonent software version 4.2; Luminex Corporation (Austin, TX)). Luminex analysis was performed to determine the pg/ml concentration of TNF-α and IL-23 produced by monocytes. Luminex analysis utilizes a bead-based system for quantification of multiple cytokines from a single sample. Like an ELISA, Luminex beads are coated with a capture antibody, and incubation with samples allows the target to bind to the capture antibody. Beads are washed and incubated with a fluorescently labeled detection antibody for quantification of bound target. Cytometric analysis is used to differentiate bead populations, which are loaded with differential fluorescent dyes, and to quantify cytokine levels by measuring detection antibody signal. TNF-α production in untreated cells and cells pre-incubated with SG-14 for 6 hours prior to HK E. coli treatment were normalized to pg/ml concentrations elicited by HK E. coli which was set to 1.0. […]

[1] = test system: DSS model of inflammatory bowel disease; assay: DSS model: body weight; type: in vivo, C57BL/6 mice; settings: 50 nmoles/kg i.p. b.i.d., 2.5% DSS; FIG. 8
Protocol: (§2) Eight-week old C57BL/6 mice were housed 5 animals were cage and given food and water ad libitum for 7 days. Following the 7-day acclimation period, treatments were initiated concurrently with addition of 2.5% DSS to the drinking water. […] The mice were treated with 2.5% dextran sodium sulfate (DSS) in their drinking water for 6 days. Treatments were continued with SG-14 or […]-GLP2 twice a day (b.i.d.) in the morning and evening (every 8 and 16 hr) with i.p. injections at 50 nmoles/kg. Fresh 2.5% DSS drinking water was prepared every 2 days. Body weight was measured daily from mice included in the DSS model described in this Example. Percent change from starting weight on day 0 was determined for each mouse. […] The graph in FIG. 8 represents data pooled from the single experiment (n=10).

[2] = test system: HCT8 enterocytes and HT29-MTX goblet cells (epithelial monolayer) co-cultured with U937 monocytes; assay: Co-culture trans-epithelial electrical resistance (TEER) assay, barrier disruption by heat killed E. coli; type: cell-based, human
Protocol: Assays were performed as described below in trans-well plates where co-cultures of multiple cell types were performed utilizing a permeable membrane to separate cells. In the apical (top) chamber, human colonic epithelial cells, consisting of a mixture of enterocytes and goblet cells, were cultured until cells obtained tight junction formation and barrier function capacity as assessed by measurement of trans-epithelial electrical resistance (TEER). In the basolateral chamber, monocytes were cultured separately. Epithelial cells were primed with inflammatory cytokines.
Cell culture. The HCT8 human enterocyte cell line (ATCC Cat. No. CCL-244) was maintained in RPMI-1640 medium supplemented with 10% fetal bovine serum, 100 IU/ml penicillin, 100 µg/ml streptomycin, 10 µg/ml gentamicin and 0.25 µg/ml amphotericin (cRPMI). HT29-MTX human goblet cells (Sigma-Aldrich (St. Louis, MO; Cat. No. 12040401) were maintained in DMEM medium with 10% fetal bovine serum, 100 IU/ml penicillin, 100 µg/ml streptomycin, 10 µg/ml gentamicin and 0.25 µg/ml amphotericin (cDMEM). Epithelial cells were passaged by trypsinization and were used between 5 and 15 passages following thawing from liquid nitrogen stocks. U937 monocytes (ATCC Cat. No. 700928) were maintained in cRPMI medium as a suspension culture, and split by dilution as needed to maintain cells between 5×10^5 and 2×10^6 cells/ml. U937 cells were used up to passage 18 following thawing from liquid nitrogen stocks.
Epithelial cell culture. A mixture of HCT8 enterocytes and HT29-MTX goblet cells were plated at a 9:1 ratio, respectively, in the apical chamber of the transwell plate as described previously (Berget et al., 2017, Int J Mol Sci, 18:1573; Beduneau et al., 2014, Eur J Pharm Biopharm, 87:290-298). […] Epithelial cells were trypsinized from culture flasks and viable cells determined by trypan blue counting. […]
Co-culture assay. […] Trans-epithelial electrical resistance (TEER) readings were measured after the IFN-γ treatment and were used as the pre-treatment TEER values. […]

[3] = test system: DSS model of inflammatory bowel disease; assay: DSS model: colon length and colon weight to length ratio; type: in vivo, C57BL/6 mice; settings: DSS treated mice
Protocol: as §2, with “Colon length” for “Body weight”, “in” for “daily from”, “Example 7.” for “this Example. Percent change from starting weight on day 0 was determined for each mouse.”, “graphs” for “graph”, “10 and FIG. 11 represent” for “8 represents”

[4] = test system: DSS model of inflammatory bowel disease; assay: DSS model: 4 KDa-FITC dextran translocation across the epithelial barrier; type: in vivo, C57BL/6 mice; settings: 50 nmoles/kg i.p. b.i.d., 2.5% DSS 6 days; FIG. 6
Protocol: Eight-week old C57BL/6 mice were housed 5 animals were cage and given food and water ad libitum for 7 days. Following the 7-day acclimation period, treatments were initiated concurrently with addition of 2.5% DSS to the drinking water. […] The mice were treated with 2.5% dextran sodium sulfate (DSS) in their drinking water for 6 days. Treatments were continued with SG-14 or […]-GLP2 twice a day (b.i.d.) in the morning and evening (every 8 and 16 hr) with i.p. injections at 50 nmoles/kg. Fresh 2.5% DSS drinking water was prepared every 2 days. On day six, mice were fasted for four hours and then orally gavaged with 600 mg/kg 4 KDa dextran labeled with fluorescein isothiocyanate (FITC) [4 KDa-FITC]. One hour after the 4 KDa-FITC gavage mice were euthanized, blood was collected and FITC signal was measured in serum. […] Results are shown in FIG. 6, and are presented as mean SEM. The graph in FIG. 6 represents data pooled from the single experiment (n=10).

IL-23 = IL-23 production by monocytes in co-culture TEER assay (Luminex); type: cell-based, human; settings: pre-incubated 6 hours prior to HK E. coli; p=0.80; FIG. 2B
Protocol: as §1

IL-10 = IL-10 production by monocytes in co-culture TEER assay (Luminex); type: cell-based, human; settings: pre-incubated 6 hours prior to HK E. coli; FIG. 3
Protocol: IL-10 production was measured in tissue culture supernatant from the basolateral chamber of the co-culture TEER assay described in Example 2 containing monocytes. Luminex analysis was performed to determine the pg/ml concentration of IL-10 produced by the monocytes. IL-10 production in untreated cells and cells pre-incubated with SG-14 for 6 hours prior to HK E. coli treatment were normalized to pg/ml concentrations elicited by HK E. coli which was set to 1.0. Pre-incubation with SG-14 increased IL-10 production to 1.21. The graph in FIG. 3 represents data pooled from two individual experiments (n=6).

B1: SG-14: Eubacterium eligens protein comprising SEQ ID NO:3; tested form expressed in E. coli, with exogenous GPLG at N-terminus and PHRD at C-terminus (protein)
chain: GCARNSTSTTTASGGETTITSAITKEDTDVTHADDAENYRVSITGDFTVTSDTSDGVTQSGSVYTITKAGEYTVTGLLSEGQLIVDAGNENEVTIVLNGTSITCSSGSPIYVKNASEVKIKSEENSFNEVIDNRNEATEDSSDDAGNAAIYATCDLKLVGKGALVVTGNYNNGIQSKDDLSIKNVIVKVTAVNNAVKVNDAVDIESGNIIAISAKGDGIKTSNSSISNKGNQKGIVTITSGNIDIYAACDGIDASYGADISGDGNLNIYTDTYSEYSEEVTSSGSSSGTSSGRDSSANKSASANTVSYVATSDTIANAPSGFGGGNMGSGNAPDMSNGNAPNMNGSSDRNKTGGNRPGMPGDFNESGNSSGQSYSTKGIKAESEINISGFTINICSTDDGIHANSDSGVLETGEDGKGTIVINGGSITISSGDDGMHADKQLDVNDGYINVVTSYEGLEAMTINLNGGKIYVYATDDGINACTGDGKTSPIVNVTGGYIDVTTTSGDTDGIDSNGNYVQTGGFVLVKGGSSSGNVSGSIDVDGTVTITGGTCVALGGVCETPVNSANAYVLGSVSFSSGSYSLKDSSGNEVISFTVDGSFSNGWICSDTLTTGSSYTLYRGADSIADWTQE
modifications: N-terminal GPLG and C-terminal PHRD
TNF-α production normalized to HK E. coli (set to 1.0) (TNF-α): 0.77 | Body weight (percent change from day 0) vs vehicle treated DSS mice [1]: significantly improved body weight | TEER of epithelial cell barrier (percent of untreated) ([2]; SG-14 1 pg/ml (40 nM) added 1 hour (FIG. 1A; text also says 30 minutes) before HK E. coli, HK E. coli alone 70.0%): 72.2% | TEER of epithelial cell barrier (percent of untreated) ([2]; SG-14 1 pg/ml (40 nM) pre-incubated 6 hours before HK E. coli (FIG. 1B), without SG-14 71.4%): 78.7% | Colon length ([3]; FIG. 10): prevented colon shortening | Ratio between colon weight and length ([3]; FIG. 11): significant reduction | 4 KDa-FITC dextran in serum vs DSS mice treated with vehicle [4]: significant reduction | Magnitude of 4 KDa-FITC dextran translocation vs Gly2-GLP2 [4]: even lower than the positive control | IL-23 production normalized to HK E. coli (set to 1.0) (IL-23): 1.1 | IL-10 production normalized to HK E. coli (set to 1.0) (IL-10): 1.21
